Results: US20260258390

B1: N74D/S99G/V102W/S126G/N198A/N212S/T254P (variant of sequence SEQ ID NO: 5) (protein)
chain: AQSVPWGISRVQAPAAHNRGLTGSGVKVAVLDTGISTHPDLNIRGGASFVPGEPSTQDGNGHGTHVAGTIAALDNSIGVLGVAPSAELYAVKVLGASGGGSWSSIAQGLEWAGNNGMHVANLSLGGPSPSATLEQAVNSATSRGVLVVAASGNSGAGSISYPARYANAMAVGATDQNNNRASFSQYGAGLDIVAPGVAVQSTYPGSTYASLSGTSMATPHVAGAAALVKQKNPSWSNVQIRNHLKNTATSLGSPNLYGSGLVNAEAATR
B2: N74D/S97D/S126G/P204I/T254P/S259N (variant of sequence SEQ ID NO: 6) (protein)
chain: AQSVPWGISRVQAPAAHNRGLTGSGVKVAVLDTGISTHPDLNIRGGASFVPGEPSTQDGNGHGTHVAGTIAALDNSIGVLGVAPSAELYAVKVLGADGSGSVSSIAQGLEWAGNNGMHVANLSLGGPSPSATLEQAVNSATSRGVLVVAASGNSGAGSISYPARYANAMAVGATDQNNNRASFSQYGAGLDIVAPGVNVQSTYIGSTYASLNGTSMATPHVAGAAALVKQKNPSWSNVQIRNHLKNTATSLGSPNLYGNGLVNAEAATR
B3: wild-type subtilisin of Bacillus lentus (SEQ ID NO: 2) (protein)
chain: AQSVPWGISRVQAPAAHNRGLTGSGVKVAVLDTGISTHPDLNIRGGASFVPGEPSTQDGNGHGTHVAGTIAALNNSIGVLGVAPSAELYAVKVLGASGSGSVSSIAQGLEWAGNNGMHVANLSLGSPSPSATLEQAVNSATSRGVLVVAASGNSGAGSISYPARYANAMAVGATDQNNNRASFSQYGAGLDIVAPGVNVQSTYPGSTYASLNGTSMATPHVAGAAALVKQKNPSWSNVQIRNHLKNTATSLGSTNLYGSGLVNAEAATR
B4: N74D/S101A/V102W (control variant of WO1995010591; sequence SEQ ID NO: 3) (protein)
chain: AQSVPWGISRVQAPAAHNRGLTGSGVKVAVLDTGISTHPDLNIRGGASFVPGEPSTQDGNGHGTHVAGTIAALDNSIGVLGVAPSAELYAVKVLGASGSGAWSSIAQGLEWAGNNGMHVANLSLGSPSPSATLEQAVNSATSRGVLVVAASGNSGAGSISYPARYANAMAVGATDQNNNRASFSQYGAGLDIVAPGVNVQSTYPGSTYASLNGTSMATPHVAGAAALVKQKNPSWSNVQIRNHLKNTATSLGSTNLYGSGLVNAEAATR
B5: N74D/S99G/V102W/S126G/D191E/N198G/N212S/T254P (variant of sequence SEQ ID NO: 4) (protein)
chain: AQSVPWGISRVQAPAAHNRGLTGSGVKVAVLDTGISTHPDLNIRGGASFVPGEPSTQDGNGHGTHVAGTIAALDNSIGVLGVAPSAELYAVKVLGASGGGSWSSIAQGLEWAGNNGMHVANLSLGGPSPSATLEQAVNSATSRGVLVVAASGNSGAGSISYPARYANAMAVGATDQNNNRASFSQYGAGLEIVAPGVGVQSTYPGSTYASLSGTSMATPHVAGAAALVKQKNPSWSNVQIRNHLKNTATSLGSPNLYGSGLVNAEAATR

Biological target: T1, succinyl-L-Ala-L-Ala-L-Pro-L-Phe-p-nitroanilide (SEQ ID NO: 1)
T1 chain: AAPF

Compared with B1, B2 is higher in Km pH 8.6 (mM): 0.05 mM for the first, 0.66 mM for the second.

Going from B3 to B4, the Km pH 8.6 (mM) falls from 0.63 mM to 0.29 mM.

B5 gave a Km pH 8.6 (mM) of 0.11 mM.

First: B1
Second: B2
The Km pH 10 (mM) of the first is lower: 0.09 mM for the first, 0.52 mM for the second.

First: B3
Second: B4
The Km pH 10 (mM) of the first is higher: 1.34 mM for the first, 0.33 mM for the second.

With B5 the Km pH 10 (mM) was 0.19 mM.

First: B1
Second: B2
The kcat pH 8.6 (% of wild-type) (% of wild-type) of the first is higher: 503 for the first, 55 for the second.

Compared with B3, B4 is higher in kcat pH 8.6 (% of wild-type) (% of wild-type): 100 for the first, 638 for the second.

Protein B5 has a kcat pH 8.6 (% of wild-type) (% of wild-type) of 579.

Going from B1 to B2, the kcat pH 10 (% half-life of wild-type) (% of wild-type) falls from 723 to 37.

Compared with B3, B4 is higher in kcat pH 10 (% half-life of wild-type) (% of wild-type): 100 for the first, 554 for the second.

With B5 the kcat pH 10 (% half-life of wild-type) (% of wild-type) was 719.

Compared with B1, B2 is lower in kcat/Km pH 8.6 (% of wild-type) (% of wild-type): 6360 for the first, 51 for the second.

First: B3
Second: B4
The kcat/Km pH 8.6 (% of wild-type) (% of wild-type) of the first is lower: 100 for the first, 1390 for the second.

With B5 the kcat/Km pH 8.6 (% of wild-type) (% of wild-type) was 3330.

Compared with B1, B2 is lower in kcat/Km pH 10 (% wild-type): 10800 % wild-type for the first, 97 % wild-type for the second.

Going from B3 to B4, the kcat/Km pH 10 (% wild-type) rises from 100 % wild-type to 2260 % wild-type.

Work on B5 yielded a kcat/Km pH 10 (% wild-type) of 5100 % wild-type.
